In patent publication US10945940B2, “Method of preparing ultra-low molecular weight keratin peptide” (KYUNGPOOK NATIONAL UNIVERSITY INDUSTRY-ACADEMIC COOPERATION …, priority 2015, dated 2021):

Legend:
[1] = molecular target: T1, Matrix metalloproteinase-1 (MMP-1) enzyme (Homo sapiens, UniProt P03956); experiment: MMP-1 enzyme activity inhibition in vitro (MMP-1 Fluorometric Drug Discovery Kit); assay type: biochemical; details: for inhibition of MMP-1 enzyme activity compared to the group treated with the only MMP-1 enzyme: 10 μM; for significant effect of inhibiting MMP-1 activity: FIG. 5A
T1 construct: purchased Enzo
T1 sequence (P03956 100-269 limits assumed): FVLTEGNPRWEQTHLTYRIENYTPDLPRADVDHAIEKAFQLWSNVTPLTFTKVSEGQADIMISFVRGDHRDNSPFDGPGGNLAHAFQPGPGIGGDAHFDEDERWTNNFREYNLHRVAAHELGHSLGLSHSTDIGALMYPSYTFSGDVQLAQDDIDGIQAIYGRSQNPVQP
Protocol: MMP-1 Fluorometric Drug Discovery Kit manufactured by Enzo company was used to evaluate an ability to inhibit Matrix metalloproteinase-1 (MMP-1) enzyme activity in the peptide synthesized in Example 3. N-Isobutyl-N-(4-methoxyphenylsulfonyl) glycyl hydroxamic acid (NNGH) which is known to inhibit MMP-1 activity was used as a positive control group, and NNGH was treated at a concentration of 0.65 μM. […] The substrate was added to the reaction mixture, fluorescence thereof was measured at Ex/Em=540/590 nm, and the ability to inhibit MMP-1 activity was evaluated according to the following Equation 2. The results of the ability of inhibiting MMP-1 activity are illustrated in FIG. 5A. Ability to inhibit MMP-1activity(%)=Fluorescence intensity of sample-added group/Fluorescence intensity of non-treated group×100 [Equation 2]

MMP-1 expression = experiment: Inhibition of UVB-induced MMP-1 expression in human dermal fibroblasts (Western blot); assay type: cell-based; details: 10 μM, 20 mJ/cm^2 UVB
Protocol: Then, ultraviolet ray B was irradiated with 20 mJ/cm^2 using Vilber Lourmat (BioLink Crosslinker, France), cultured for 24 hours, and then cell proteins were recovered. At this time, the medium was removed before ultraviolet irradiation, and then washed with phosphate buffered saline (PBS) solution to remove serum components in the medium and then irradiated with ultraviolet ray B. The cells were washed twice with PBS solution to recover the proteins, and then the cells adhered to the bottom were recovered using a lysis buffer and centrifuged at 14,000 rpm for 10 minutes. After each supernatant was recovered, the protein concentration of each cell supernatant was quantified according to the method of use with a protein assay kit (Bio-Rad, USA) using bovine serum albumin (BSA) as the reference material. About […] protein from each of the protein extracts was denatured and separated by 8% gel sodium dodecyl sulphate-polyacrylamide gel electrophoresis (SDS-PAGE) and transferred to a polyvinylidene fluoride (PVDF) membrane at 120 mA for 2 hours. […]

Substance | inhibition of MMP-1 enzyme activity compared to the group treated with the only MMP-1 enzyme [1] | significant effect of inhibiting MMP-1 activity [1] | inhibition of MMP-1 expression compared to the group treated with the only UVB (MMP-1 expression)
FPQN [2n7-5] | inhibited the activity of MMP-1 enzyme | – | –
GFGGF [2n7-4] | inhibited the activity of MMP-1 enzyme | significant effect of inhibiting MMP-1 activity | –
GLGSR [2-2] | inhibited the activity of MMP-1 enzyme | significant effect of inhibiting MMP-1 activity | ~35%
GLSGL [KP7-1] | inhibited the activity of MMP-1 enzyme | significant effect of inhibiting MMP-1 activity | –
GPTPL [2-1] | inhibited the activity of MMP-1 enzyme | significant effect of inhibiting MMP-1 activity | about 24%
IQPSPV [KP7-2] | inhibited the activity of MMP-1 enzyme | significant effect of inhibiting MMP-1 activity | –
PISS [2n7-2] | inhibited the activity of MMP-1 enzyme | – | –
